Measurements from article PMC2862490 (Proteomics, 2009).
Square brackets hold non-standard residues; d marks the D form. Ends that are not written are not given here. pY = N[C@@H](Cc1ccc(OP(=O)(O)O)cc1)C(=O)O; Ahx = NCCCCCC(=O)O

T1: GST tagged C SH2 domain of PLCγ-1 (663–759) (human, UniProt P19174 663-759)
T1 sequence (looked up): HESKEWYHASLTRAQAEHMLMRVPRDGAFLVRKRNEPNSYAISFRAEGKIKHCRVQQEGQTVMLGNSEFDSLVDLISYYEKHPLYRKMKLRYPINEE

T2: GST tagged N SH2 domain of PLCγ-1 (544–659) (human, UniProt P19174 544-659)
T2 sequence (looked up): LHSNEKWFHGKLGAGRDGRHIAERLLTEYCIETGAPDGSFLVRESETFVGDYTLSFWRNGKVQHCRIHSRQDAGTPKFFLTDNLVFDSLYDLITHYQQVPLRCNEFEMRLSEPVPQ


What was measured:
[1] = target: Shp-2 (Shp2) SH2(C) domain (UniProt Q06124); assay: immobilised peptide pull-down, anti-ubiquitin tag blot; details: reference: unphosphorylated Y4507 peptide; sites Y4507
[2] = target: Shp-2 (Shp2) SH2(N) domain (UniProt Q06124); assay: as above; details: reference: unphosphorylated Y4507 peptide; sites Y4507
CSK, His tagged = CSK, His tagged (UniProt P41240); assay: immobilised peptide pull-down, anti-CSK blot; details: reference: unphosphorylated Y4507 peptide; sites Y4507
[3] = target: PLCγ-1 N SH2 domain, 544-659 (UniProt P19174); assay: immobilised peptide pull-down, anti-GST blot; details: reference: unphosphorylated Y4507 peptide; sites Y4507
Grb2 SH2 domain, 58-159 = Grb2 SH2 domain, 58-159 (UniProt P62993); assay: immobilised peptide pull-down, anti-GST blot; details: reference: unphosphorylated Y4507 peptide; sites Y4507
[4] = target: PLCγ-1 C SH2 domain, 663-759 (UniProt P19174); assay: immobilised peptide pull-down, anti-GST blot; details: reference: unphosphorylated Y4507 peptide; sites Y4507
[5] = target: T1, GST tagged C SH2 domain of PLCγ-1 …; assay: pull-down
[6] = target: T2, GST tagged N SH2 domain of PLCγ-1 …; assay: pull-down
[7] = target: GST tagged SH2 domain of Grb2 (58–159) (human, UniProt P62993 58-159); assay: pull-down

| binding against the reference [1] | binding against the reference [2] | binding against the reference (CSK, His tagged) | binding against the reference [3] | binding against the reference (Grb2 SH2 domain, 58-159) | binding against the reference [4] | binding result [5] | binding result [6] | binding result [7] | Molecule |
| --- | --- | --- | --- | --- | --- | --- | --- | --- | --- |
| stronger | stronger | stronger | stronger | stronger | stronger |  |  |  | LDL receptor-related protein 1 (LRP1) NPXY4507 microdomain (from UniProt Q07954) pY4507 peptide |
|  |  |  |  |  |  | binds | binds | binds | C[Ahx]TNFTNPV[pY]ATLY [NPXpY_(4507) microdomain of LRP1-CT, tyrosine-phosphorylated] |
